{"source": "paper PMC7643134", "biological_target": "Hydroxynitrile lyase from Parafontaria laminata millipedes, purified from the millipedes (PlamHNL-N) (Parafontaria laminata)", "experiment": "SEC"}
{"substance": "Hydroxynitrile lyase from Parafontaria laminata millipedes, purified from the millipedes (PlamHNL-N) (enzyme)", "values": [{"measurement": "stoichiometry N", "result": 2}]}
